Results from paper PMC9482650, “Quantitative fragmentomics allow affinity mapping of interactomes” (Nature Communications, 2022).

molecular target: SCRIB_3, Q14160; assay: holdup assay; parameters: key: below the threshold = too weak to quantify, mostly under pKd 3.1 to 4; details: plain residues with an end cap or a label only (N-terminal biotin on a linker: ado-ado)
Sequence (Q14160 999-1103): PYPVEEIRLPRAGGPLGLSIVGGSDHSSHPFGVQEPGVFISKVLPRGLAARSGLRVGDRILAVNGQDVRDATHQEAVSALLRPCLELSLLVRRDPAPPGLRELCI

| Binder | pKd |
| --- | --- |
| SPDRDRESIV [SCN5A, Q14524] | 3.86 |
| PPGKHLVTEV [KCNA7, Q96RP8] | 4.56 |

molecular target: T1, NHERF3_1, Q5T2W1; assay: holdup assay; parameters: key: below the threshold = too weak to quantify, mostly under pKd 3.1 to 4; details: plain residues with an end cap or a label only (N-terminal biotin on a linker: ado-ado)
T1 sequence (Q5T2W1 4-100, limits assumed, looked up): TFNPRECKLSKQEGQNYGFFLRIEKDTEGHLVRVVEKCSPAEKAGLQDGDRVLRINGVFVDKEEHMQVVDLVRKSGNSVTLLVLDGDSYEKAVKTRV

| Binder | pKd |
| --- | --- |
| SPDRDRESIV [SCN5A, Q14524] | 3.72 |
| PPGKHLVTEV [KCNA7, Q96RP8] | below the threshold |

molecular target: LAP2, Q96RT1; assay: holdup assay; parameters: key: below the threshold = too weak to quantify, mostly under pKd 3.1 to 4; details: plain residues with an end cap or a label only (N-terminal biotin on a linker: ado-ado)
Sequence (Q96RT1 other isoform, or with tags, fused parts or gaps): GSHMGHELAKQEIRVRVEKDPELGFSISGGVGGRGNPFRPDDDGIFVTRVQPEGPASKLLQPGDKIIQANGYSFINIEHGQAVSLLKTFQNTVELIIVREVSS

| Binder | pKd |
| --- | --- |
| SPDRDRESIV [SCN5A, Q14524] | below the threshold |
| PPGKHLVTEV [KCNA7, Q96RP8] | 4.39 |

molecular target: SCRIB_2, Q14160; assay: holdup assay; parameters: key: below the threshold = too weak to quantify, mostly under pKd 3.1 to 4; details: plain residues with an end cap or a label only (N-terminal biotin on a linker: ado-ado)
Sequence (Q14160 857-960): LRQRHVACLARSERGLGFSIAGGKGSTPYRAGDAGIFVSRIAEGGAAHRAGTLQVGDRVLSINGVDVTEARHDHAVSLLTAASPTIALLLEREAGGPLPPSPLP

| Binder | pKd |
| --- | --- |
| SPDRDRESIV [SCN5A, Q14524] | below the threshold |
| PPGKHLVTEV [KCNA7, Q96RP8] | 4.08 |

molecular target: DLG5_1, Q8TDM6; assay: holdup assay; parameters: key: below the threshold = too weak to quantify, mostly under pKd 3.1 to 4; details: plain residues with an end cap or a label only (N-terminal biotin on a linker: ado-ado)
Sequence (Q8TDM6 617-713): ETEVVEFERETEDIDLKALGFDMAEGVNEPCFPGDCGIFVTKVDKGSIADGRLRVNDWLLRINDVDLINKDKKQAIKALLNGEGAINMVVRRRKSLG

| Binder | pKd |
| --- | --- |
| SPDRDRESIV [SCN5A, Q14524] | below the threshold |
| PPGKHLVTEV [KCNA7, Q96RP8] | below the threshold |

molecular target: Inadl_5, Q8NI35; assay: holdup assay; parameters: key: below the threshold = too weak to quantify, mostly under pKd 3.1 to 4; details: plain residues with an end cap or a label only (N-terminal biotin on a linker: ado-ado)
Sequence (Q8NI35 673-780): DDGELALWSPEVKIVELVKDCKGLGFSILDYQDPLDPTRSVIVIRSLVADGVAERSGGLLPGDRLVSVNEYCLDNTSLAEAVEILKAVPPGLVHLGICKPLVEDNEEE

| Binder | pKd |
| --- | --- |
| SPDRDRESIV [SCN5A, Q14524] | below the threshold |
| PPGKHLVTEV [KCNA7, Q96RP8] | below the threshold |

molecular target: GRIP2_5, Q9C0E4; assay: holdup assay; parameters: key: below the threshold = too weak to quantify, mostly under pKd 3.1 to 4; details: plain residues with an end cap or a label only (N-terminal biotin on a linker: ado-ado)
Sequence (Q9C0E4 544-642): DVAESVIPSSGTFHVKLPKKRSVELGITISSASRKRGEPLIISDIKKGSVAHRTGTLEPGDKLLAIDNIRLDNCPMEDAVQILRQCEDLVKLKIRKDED

| Binder | pKd |
| --- | --- |
| SPDRDRESIV [SCN5A, Q14524] | below the threshold |
| PPGKHLVTEV [KCNA7, Q96RP8] | below the threshold |

molecular target: T2, LRRC7, Q96NW7; assay: holdup assay; parameters: key: below the threshold = too weak to quantify, mostly under pKd 3.1 to 4; details: plain residues with an end cap or a label only (N-terminal biotin on a linker: ado-ado)
T2 sequence (Q96NW7 1440-1537, limits assumed, looked up): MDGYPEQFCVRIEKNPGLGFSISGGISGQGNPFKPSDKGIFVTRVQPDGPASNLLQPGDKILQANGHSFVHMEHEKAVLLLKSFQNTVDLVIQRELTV

| Binder | pKd |
| --- | --- |
| SPDRDRESIV [SCN5A, Q14524] | 3.48 |
| PPGKHLVTEV [KCNA7, Q96RP8] | 3.96 |

molecular target: NHERF4_1, Q86UT5-2; assay: holdup assay; parameters: key: below the threshold = too weak to quantify, mostly under pKd 3.1 to 4; details: plain residues with an end cap or a label only (N-terminal biotin on a linker: ado-ado)
Sequence (Q86UT5 other isoform, or with tags, fused parts or gaps): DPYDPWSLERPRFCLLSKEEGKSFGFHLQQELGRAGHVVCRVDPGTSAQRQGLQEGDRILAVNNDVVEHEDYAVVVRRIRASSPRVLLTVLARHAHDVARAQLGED

| Binder | pKd |
| --- | --- |
| SPDRDRESIV [SCN5A, Q14524] | below the threshold |
| PPGKHLVTEV [KCNA7, Q96RP8] | 3.94 |

molecular target: T3, CARD11, Q9BXL7; assay: holdup assay; parameters: key: below the threshold = too weak to quantify, mostly under pKd 3.1 to 4; details: plain residues with an end cap or a label only (N-terminal biotin on a linker: ado-ado)
T3 sequence (Q9BXL7 662-765, limits assumed, looked up): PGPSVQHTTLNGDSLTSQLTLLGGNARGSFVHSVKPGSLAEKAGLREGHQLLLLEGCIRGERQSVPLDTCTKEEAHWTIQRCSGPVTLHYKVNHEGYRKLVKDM

| Binder | pKd |
| --- | --- |
| SPDRDRESIV [SCN5A, Q14524] | below the threshold |
| PPGKHLVTEV [KCNA7, Q96RP8] | below the threshold |

molecular target: T4, PCLO, Q9Y6V0; assay: holdup assay; parameters: key: below the threshold = too weak to quantify, mostly under pKd 3.1 to 4; details: plain residues with an end cap or a label only (N-terminal biotin on a linker: ado-ado)
T4 sequence (Q9Y6V0 4491-4600, limits assumed, looked up): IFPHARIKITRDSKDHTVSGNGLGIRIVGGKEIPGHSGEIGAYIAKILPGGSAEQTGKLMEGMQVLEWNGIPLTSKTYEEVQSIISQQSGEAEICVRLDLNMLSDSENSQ

| Binder | pKd |
| --- | --- |
| SPDRDRESIV [SCN5A, Q14524] | below the threshold |
| PPGKHLVTEV [KCNA7, Q96RP8] | below the threshold |

molecular target: T5, LIN7B, Q9HAP6; assay: holdup assay; parameters: key: below the threshold = too weak to quantify, mostly under pKd 3.1 to 4; details: plain residues with an end cap or a label only (N-terminal biotin on a linker: ado-ado)
T5 sequence (Q9HAP6 88-185, limits assumed, looked up): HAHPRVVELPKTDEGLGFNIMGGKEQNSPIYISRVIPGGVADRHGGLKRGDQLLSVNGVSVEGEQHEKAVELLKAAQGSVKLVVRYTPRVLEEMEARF

| Binder | pKd |
| --- | --- |
| SPDRDRESIV [SCN5A, Q14524] | below the threshold |
| PPGKHLVTEV [KCNA7, Q96RP8] | 3.97 |

molecular target: LDB3, O75112; assay: holdup assay; parameters: key: below the threshold = too weak to quantify, mostly under pKd 3.1 to 4; details: plain residues with an end cap or a label only (N-terminal biotin on a linker: ado-ado)
Sequence (O75112 1-94): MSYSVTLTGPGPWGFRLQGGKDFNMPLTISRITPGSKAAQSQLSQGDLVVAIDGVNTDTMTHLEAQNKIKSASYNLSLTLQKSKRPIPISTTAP

| Binder | pKd |
| --- | --- |
| SPDRDRESIV [SCN5A, Q14524] | below the threshold |
| PPGKHLVTEV [KCNA7, Q96RP8] | below the threshold |

molecular target: T6, LNX2_2, Q8N448; assay: holdup assay; parameters: key: below the threshold = too weak to quantify, mostly under pKd 3.1 to 4; details: plain residues with an end cap or a label only (N-terminal biotin on a linker: ado-ado)
T6 sequence (Q8N448 334-432, limits assumed, looked up): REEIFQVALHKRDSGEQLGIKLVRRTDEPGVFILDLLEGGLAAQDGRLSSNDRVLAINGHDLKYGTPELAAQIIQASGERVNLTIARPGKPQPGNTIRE

| Binder | pKd |
| --- | --- |
| SPDRDRESIV [SCN5A, Q14524] | 4.44 |
| PPGKHLVTEV [KCNA7, Q96RP8] | 4.91 |

molecular target: DLG4_3, P78352; assay: holdup assay; parameters: key: below the threshold = too weak to quantify, mostly under pKd 3.1 to 4; details: plain residues with an end cap or a label only (N-terminal biotin on a linker: ado-ado)
Sequence (P78352 306-403): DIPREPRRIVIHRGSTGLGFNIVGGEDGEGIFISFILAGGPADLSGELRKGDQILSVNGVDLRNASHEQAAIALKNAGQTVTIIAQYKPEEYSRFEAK

| Binder | pKd |
| --- | --- |
| SPDRDRESIV [SCN5A, Q14524] | below the threshold |
| PPGKHLVTEV [KCNA7, Q96RP8] | 4.16 |

molecular target: T7, NHERF3_3, Q5T2W1; assay: holdup assay; parameters: key: below the threshold = too weak to quantify, mostly under pKd 3.1 to 4; details: plain residues with an end cap or a label only (N-terminal biotin on a linker: ado-ado)
T7 sequence (Q5T2W1 238-333, limits assumed, looked up): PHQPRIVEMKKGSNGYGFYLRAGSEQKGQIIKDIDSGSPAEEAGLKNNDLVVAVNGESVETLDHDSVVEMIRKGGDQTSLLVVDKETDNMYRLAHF

| Binder | pKd |
| --- | --- |
| SPDRDRESIV [SCN5A, Q14524] | below the threshold |
| PPGKHLVTEV [KCNA7, Q96RP8] | below the threshold |

molecular target: GOPC, Q9HD26; assay: holdup assay; parameters: key: below the threshold = too weak to quantify, mostly under pKd 3.1 to 4; details: plain residues with an end cap or a label only (N-terminal biotin on a linker: ado-ado)

| Binder | pKd |
| --- | --- |
| SPDRDRESIV [SCN5A, Q14524] | 3.7 |
| PPGKHLVTEV [KCNA7, Q96RP8] | 3.68 |

molecular target: IL16_3, Q14005; assay: holdup assay; parameters: key: below the threshold = too weak to quantify, mostly under pKd 3.1 to 4; details: plain residues with an end cap or a label only (N-terminal biotin on a linker: ado-ado)
Sequence (Q14005 1107-1207): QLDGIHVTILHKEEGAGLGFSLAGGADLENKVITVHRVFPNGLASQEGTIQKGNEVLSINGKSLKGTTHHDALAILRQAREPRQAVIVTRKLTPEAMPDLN

| Binder | pKd |
| --- | --- |
| SPDRDRESIV [SCN5A, Q14524] | below the threshold |
| PPGKHLVTEV [KCNA7, Q96RP8] | below the threshold |

molecular target: T8, HTRA3, P83110; assay: holdup assay; parameters: key: below the threshold = too weak to quantify, mostly under pKd 3.1 to 4; details: plain residues with an end cap or a label only (N-terminal biotin on a linker: ado-ado)
T8 sequence (P83110 354-453, limits assumed, looked up): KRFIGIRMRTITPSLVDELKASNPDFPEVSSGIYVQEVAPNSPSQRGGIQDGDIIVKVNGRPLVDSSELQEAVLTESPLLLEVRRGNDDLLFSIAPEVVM

| Binder | pKd |
| --- | --- |
| SPDRDRESIV [SCN5A, Q14524] | below the threshold |
| PPGKHLVTEV [KCNA7, Q96RP8] | below the threshold |

molecular target: MAGI2_4, Q86UL8; assay: holdup assay; parameters: key: below the threshold = too weak to quantify, mostly under pKd 3.1 to 4; details: plain residues with an end cap or a label only (N-terminal biotin on a linker: ado-ado)
Sequence (Q86UL8 772-865): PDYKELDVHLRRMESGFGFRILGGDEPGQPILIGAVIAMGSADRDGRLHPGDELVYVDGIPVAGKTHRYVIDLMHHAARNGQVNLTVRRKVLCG

| Binder | pKd |
| --- | --- |
| SPDRDRESIV [SCN5A, Q14524] | 3.63 |
| PPGKHLVTEV [KCNA7, Q96RP8] | 4.48 |

molecular target: SNX27, Q96L92; assay: holdup assay; parameters: key: below the threshold = too weak to quantify, mostly under pKd 3.1 to 4; details: plain residues with an end cap or a label only (N-terminal biotin on a linker: ado-ado)

| Binder | pKd |
| --- | --- |
| SPDRDRESIV [SCN5A, Q14524] | 5.26 |
| PPGKHLVTEV [KCNA7, Q96RP8] | 4.95 |

molecular target: T9, SNTG1, Q9NSN8; assay: holdup assay; parameters: key: below the threshold = too weak to quantify, mostly under pKd 3.1 to 4; details: plain residues with an end cap or a label only (N-terminal biotin on a linker: ado-ado)
T9 sequence (Q9NSN8 52-150, limits assumed, looked up): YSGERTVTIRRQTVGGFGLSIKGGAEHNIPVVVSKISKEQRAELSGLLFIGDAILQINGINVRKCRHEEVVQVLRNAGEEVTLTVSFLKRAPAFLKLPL

| Binder | pKd |
| --- | --- |
| SPDRDRESIV [SCN5A, Q14524] | 4.72 |
| PPGKHLVTEV [KCNA7, Q96RP8] | 4.35 |

molecular target: GRID2IP_2, A4D2P6; assay: holdup assay; parameters: key: below the threshold = too weak to quantify, mostly under pKd 3.1 to 4; details: plain residues with an end cap or a label only (N-terminal biotin on a linker: ado-ado)
Sequence (A4D2P6 272-370): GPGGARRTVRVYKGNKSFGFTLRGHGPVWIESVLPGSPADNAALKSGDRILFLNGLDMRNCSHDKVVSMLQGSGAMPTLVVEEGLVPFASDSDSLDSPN

| Binder | pKd |
| --- | --- |
| SPDRDRESIV [SCN5A, Q14524] | 3.63 |
| PPGKHLVTEV [KCNA7, Q96RP8] | 4.37 |

molecular target: PICK1, Q9NRD5; assay: holdup assay; parameters: key: below the threshold = too weak to quantify, mostly under pKd 3.1 to 4; details: plain residues with an end cap or a label only (N-terminal biotin on a linker: ado-ado)
Sequence (Q9NRD5 17-115): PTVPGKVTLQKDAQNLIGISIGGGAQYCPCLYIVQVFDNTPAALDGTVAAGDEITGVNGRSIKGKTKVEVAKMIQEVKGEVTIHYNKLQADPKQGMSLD

| Binder | pKd |
| --- | --- |
| SPDRDRESIV [SCN5A, Q14524] | 4.21 |
| PPGKHLVTEV [KCNA7, Q96RP8] | below the threshold |

molecular target: TJP2_1, Q9UDY2; assay: holdup assay; parameters: key: below the threshold = too weak to quantify, mostly under pKd 3.1 to 4; details: plain residues with an end cap or a label only (N-terminal biotin on a linker: ado-ado)
Sequence (Q9UDY2 24-128): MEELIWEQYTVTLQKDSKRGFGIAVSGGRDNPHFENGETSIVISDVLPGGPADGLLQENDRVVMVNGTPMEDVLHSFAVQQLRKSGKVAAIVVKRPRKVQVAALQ

| Binder | pKd |
| --- | --- |
| SPDRDRESIV [SCN5A, Q14524] | below the threshold |
| PPGKHLVTEV [KCNA7, Q96RP8] | 3.6 |

molecular target: Inadl_10, Q8NI35; assay: holdup assay; parameters: key: below the threshold = too weak to quantify, mostly under pKd 3.1 to 4; details: plain residues with an end cap or a label only (N-terminal biotin on a linker: ado-ado)
Sequence (Q8NI35 1673-1763): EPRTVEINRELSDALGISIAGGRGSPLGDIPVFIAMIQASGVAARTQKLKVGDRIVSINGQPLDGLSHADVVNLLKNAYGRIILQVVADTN

| Binder | pKd |
| --- | --- |
| SPDRDRESIV [SCN5A, Q14524] | below the threshold |
| PPGKHLVTEV [KCNA7, Q96RP8] | 3.7 |

molecular target: GRIP2_7, Q9C0E4; assay: holdup assay; parameters: key: below the threshold = too weak to quantify, mostly under pKd 3.1 to 4; details: plain residues with an end cap or a label only (N-terminal biotin on a linker: ado-ado)
Sequence (Q9C0E4 934-1023): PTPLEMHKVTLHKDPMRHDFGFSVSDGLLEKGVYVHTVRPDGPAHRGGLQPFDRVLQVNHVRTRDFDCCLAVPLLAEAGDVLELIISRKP

| Binder | pKd |
| --- | --- |
| SPDRDRESIV [SCN5A, Q14524] | below the threshold |
| PPGKHLVTEV [KCNA7, Q96RP8] | below the threshold |

molecular target: NHERF4_2, Q86UT5; assay: holdup assay; parameters: key: below the threshold = too weak to quantify, mostly under pKd 3.1 to 4; details: plain residues with an end cap or a label only (N-terminal biotin on a linker: ado-ado)
Sequence (Q86UT5 220-308): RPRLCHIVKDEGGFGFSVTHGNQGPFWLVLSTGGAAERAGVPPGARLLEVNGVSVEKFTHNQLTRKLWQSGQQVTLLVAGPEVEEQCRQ

| Binder | pKd |
| --- | --- |
| SPDRDRESIV [SCN5A, Q14524] | below the threshold |
| PPGKHLVTEV [KCNA7, Q96RP8] | below the threshold |
